Results taken from publication PMC10679507.

Tests used:
Assay in all cases: UV-vis
Settings in all cases: room temperature; 0.4 M NaCl; 6-mix buffer (citric acid 5.48 mM; ADA 1.84 mM; MOPS 4.16 mM; TAPS 5.00 mM; CHES 3.24 mM; CAPS 5.56 mM); dark (unphotolyzed) state, lipid-reconstituted
[1] = target: Glu10 (UniProt position 10, GNATFENYIGL)
[2] = target: Asp115 (UniProt position 115, LNWLIDVPMLL)
[3] = target: Asp250 (UniProt position 250, TYTIADVSSKV)

Substance	pKa [1]	pKa [2]	pKa [3]
Sodium pump rhodopsin IaNaR (Indibacter alkaliphilus)	4.1	5.5	3.2
Sodium pump rhodopsin IaNaR D115N (Indibacter alkaliphilus; D115N)	4.6		2.5
Sodium pump rhodopsin IaNaR D250N (Indibacter alkaliphilus; D250N)	2.8	5.0	
Sodium pump rhodopsin IaNaR E10Q/E159Q/R242Q (Indibacter alkaliphilus; E10Q;E159Q;R242Q)		7.1	3.6
Sodium pump rhodopsin IaNaR E10Q/R242Q (Indibacter alkaliphilus; E10Q;R242Q)		5.7	3.8
Sodium pump rhodopsin IaNaR E159A (Indibacter alkaliphilus; E159A)		5.6	3.3
Sodium pump rhodopsin IaNaR E159Q (Indibacter alkaliphilus; E159Q)	3.7		3.1
Sodium pump rhodopsin IaNaR H225A (Indibacter alkaliphilus; H225A)	4.3	5.8	3.0
Sodium pump rhodopsin IaNaR R242Q (Indibacter alkaliphilus; R242Q)	4.4	6.4	
